Legend:
PRC1(1-486) = PRC1(1-486) (UniProt O43663); experiment: BLI
[1] = target: full-length PRC1 (Protein Regulator of Cytokinesis-1) (UniProt O43663); experiment: BLI
[2] = target: microtubules polymerised from tubulin; experiment: TIRF microscopy, GFP intensity on immobilised microtubules
Sequence of microtubules polymerised from tubulin (P68363 whole entry, chain 1 of 2): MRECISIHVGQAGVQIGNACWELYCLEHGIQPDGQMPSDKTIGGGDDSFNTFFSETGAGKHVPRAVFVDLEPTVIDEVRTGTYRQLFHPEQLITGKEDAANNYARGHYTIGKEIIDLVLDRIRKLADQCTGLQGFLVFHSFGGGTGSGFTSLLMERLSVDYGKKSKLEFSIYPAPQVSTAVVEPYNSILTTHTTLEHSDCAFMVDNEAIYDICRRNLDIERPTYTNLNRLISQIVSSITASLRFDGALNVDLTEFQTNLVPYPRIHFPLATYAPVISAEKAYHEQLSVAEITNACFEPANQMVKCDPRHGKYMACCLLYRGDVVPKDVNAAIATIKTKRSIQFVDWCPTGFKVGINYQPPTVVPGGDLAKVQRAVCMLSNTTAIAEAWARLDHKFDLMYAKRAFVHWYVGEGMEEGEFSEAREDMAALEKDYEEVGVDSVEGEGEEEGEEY
Sequence of microtubules polymerised from tubulin (A8K068 whole entry, chain 2 of 2, further chain): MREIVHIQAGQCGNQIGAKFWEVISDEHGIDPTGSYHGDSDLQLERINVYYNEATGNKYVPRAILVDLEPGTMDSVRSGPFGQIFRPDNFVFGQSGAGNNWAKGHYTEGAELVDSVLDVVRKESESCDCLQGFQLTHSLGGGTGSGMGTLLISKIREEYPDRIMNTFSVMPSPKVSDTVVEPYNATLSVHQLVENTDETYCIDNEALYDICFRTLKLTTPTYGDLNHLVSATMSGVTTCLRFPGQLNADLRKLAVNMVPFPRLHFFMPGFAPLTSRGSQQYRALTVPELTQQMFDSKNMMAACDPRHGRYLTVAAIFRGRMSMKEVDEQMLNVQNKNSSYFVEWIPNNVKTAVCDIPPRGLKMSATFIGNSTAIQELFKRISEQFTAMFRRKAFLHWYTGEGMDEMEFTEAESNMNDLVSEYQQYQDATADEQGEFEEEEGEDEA

Sequence of PRC1(1-486) (O43663 1-486): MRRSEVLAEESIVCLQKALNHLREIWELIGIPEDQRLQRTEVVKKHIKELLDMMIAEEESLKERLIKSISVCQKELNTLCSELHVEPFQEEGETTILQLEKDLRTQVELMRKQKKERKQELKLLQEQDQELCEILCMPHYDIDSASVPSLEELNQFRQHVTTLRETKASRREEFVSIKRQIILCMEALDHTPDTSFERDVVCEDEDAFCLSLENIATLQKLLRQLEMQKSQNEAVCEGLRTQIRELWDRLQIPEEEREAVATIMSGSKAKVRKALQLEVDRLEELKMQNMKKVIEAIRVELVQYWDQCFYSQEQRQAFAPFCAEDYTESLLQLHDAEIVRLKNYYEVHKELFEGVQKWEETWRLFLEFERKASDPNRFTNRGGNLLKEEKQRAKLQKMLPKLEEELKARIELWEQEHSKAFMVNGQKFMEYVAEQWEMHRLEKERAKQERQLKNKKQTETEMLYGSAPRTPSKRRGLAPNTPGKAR
Sequence of full-length PRC1 (Protein Regulator of Cytokinesis-1) (O43663 whole entry): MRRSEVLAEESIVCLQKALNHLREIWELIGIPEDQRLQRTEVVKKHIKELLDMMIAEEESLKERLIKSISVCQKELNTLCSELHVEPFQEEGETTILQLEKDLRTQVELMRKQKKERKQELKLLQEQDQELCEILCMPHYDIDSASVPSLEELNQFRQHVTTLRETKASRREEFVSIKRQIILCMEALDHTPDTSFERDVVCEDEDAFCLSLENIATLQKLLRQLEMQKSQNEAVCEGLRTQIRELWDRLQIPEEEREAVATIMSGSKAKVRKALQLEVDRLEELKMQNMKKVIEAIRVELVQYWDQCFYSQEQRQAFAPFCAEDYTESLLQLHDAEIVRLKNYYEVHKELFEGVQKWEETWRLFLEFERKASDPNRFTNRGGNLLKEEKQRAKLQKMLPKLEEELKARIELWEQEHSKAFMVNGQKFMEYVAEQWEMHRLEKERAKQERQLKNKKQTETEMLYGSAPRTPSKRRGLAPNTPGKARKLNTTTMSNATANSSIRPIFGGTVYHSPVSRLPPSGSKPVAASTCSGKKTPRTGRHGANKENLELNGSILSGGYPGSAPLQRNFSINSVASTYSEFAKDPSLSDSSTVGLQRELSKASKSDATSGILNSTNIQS

Kd (PRC1(1-486))	Kd [1]	Substance	GFP intensity per pixel at 8 nM [2]	GFP intensity per pixel at 40 nM [2]	GFP intensity per pixel at 60 nM [2]	GFP intensity per pixel at 80 nM [2]	GFP intensity per pixel at 160 nM [2]	GFP intensity per pixel at 400 nM [2]	GFP intensity per pixel at 800 nM [2]
1.04 µM	1.19 µM	CLASP1(654-1471)-GFP (domain or fragment)							
		full-length CLASP1-GFP (natural protein)	26.9	95.3	109	400	398	754	854

— paper PMC8387365
